This is an account of results in US20160115200A1 (published 2016).

Square brackets hold non-standard residues; d marks the D form. Ends that are not written are not given here.

T1 sequence (P53779 other isoform, or with tags, fused parts or gaps): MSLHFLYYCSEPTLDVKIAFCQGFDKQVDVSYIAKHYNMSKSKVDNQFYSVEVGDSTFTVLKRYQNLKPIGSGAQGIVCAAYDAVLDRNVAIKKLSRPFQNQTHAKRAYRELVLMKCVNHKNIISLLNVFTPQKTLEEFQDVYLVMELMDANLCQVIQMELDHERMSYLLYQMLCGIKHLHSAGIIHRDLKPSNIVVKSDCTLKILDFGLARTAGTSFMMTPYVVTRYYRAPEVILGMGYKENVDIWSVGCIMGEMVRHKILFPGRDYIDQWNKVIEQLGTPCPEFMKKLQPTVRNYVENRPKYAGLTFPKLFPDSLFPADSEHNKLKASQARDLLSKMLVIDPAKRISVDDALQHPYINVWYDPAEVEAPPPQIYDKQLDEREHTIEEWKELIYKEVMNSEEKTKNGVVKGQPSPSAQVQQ

One experiment has as its target T1, His-JNK3 (ref 14-501, Upstate) (UniProt P53779 1-422). The experiment in a line: kinase inhibition.
Broadly, the IC50 is the concentration that inhibits the measured activity by half. A lower IC50 goes with greater potency. The molecule [dR]KKR[dR]QR[dR]KRP[dA]TLNL[dF] [SEQ ID NO: 184] returned an IC50 of 129 nM.

In the case of [dR]KKR[dR]QRR[dR]RP[dK]RPTTLNL[dW] [SEQ ID NO: 176], the IC50 turned out to be 22.4 nM.

GRKKRRQRRRPTTLNLFPQVPRSQD [SEQ ID NO: 195] showed an IC50 of 4.92 nM.

Molecule [dR]KKR[dR]QRR[dR]RPTTL[dR]L[dW] [SEQ ID NO: 178] returned an IC50 of 30.4 nM.

[dR]KKR[dR]QR[dR]RP[dA]TLNL[dF] [SEQ ID NO: 183] gave an IC50 of 199 nM. This IC50 is about 6.5-fold higher than that of the molecule before.

[dR]KKR[dR]QRR[dR]RP[dK]AA[dA]AANA[dF] [SEQ ID NO: 200] displayed an IC50 of 3820 nM.

Consider [dR]KKR[dR]QRR[dR]GKRKAL[dR]L[dF] [SEQ ID NO: 189], for which the IC50 came to 128 nM.

The molecule [dR]KKR[dR]QRR[dR]GKRKALKL[dF] [SEQ ID NO: 188] displayed an IC50 of 36.1 nM.

In the case of [dR]KKR[dR]QRR[dR]RPTDL[dR]L[dW] [SEQ ID NO: 180], the IC50 turned out to be 47 nM.

In turn, [dR]KKR[dR]QR[dR]RPTTL[dR]L[dW] [SEQ ID NO: 179] registered an IC50 of 45.7 nM.

In the case of [dR]KKR[dR]QRR[dR]RPTTLNL[dF] [SEQ ID NO: 174], the IC50 was 63.1 nM. This IC50 and that of the molecule before are within 1.5-fold of each other.

[dR]KKR[dR]QRR[dR]RP[dK]RPTTL[dR]L[dF] [SEQ ID NO: 173] returned an IC50 of 16.8 nM.

The molecule [dR]KKR[dR]QRR[dR]RP[dK]RP[dQ]TLNL[dF] [SEQ ID NO: 186] showed an IC50 of 44.2 nM.

Take [dR]KKR[dR]QR[dR]RPTTLNL[dF] [SEQ ID NO: 175]: it took 60.6 nM to reach half-maximal inhibition (IC50). This IC50 and that of the molecule before are within 1.5-fold of each other.

GRKKRRQRRRPPKRPTTLNLFPQVPRSQD [SEQ ID NO: 194] returned an IC50 of 2.59 nM. This IC50 lies about 23-fold lower than the previous one.

Turning to [dR]KKR[dR]QRR[dR]RP[dK]RP[dS]TLNL[dF] [SEQ ID NO: 185], the IC50 is 35.5 nM.

In the case of [dR]KKR[dR]QRR[dR]RP[dA]TLNL[dF] [SEQ ID NO: 182], inhibition was half-maximal at 59.4 nM (IC50).

Molecule [dR]KKR[dR]QRR[dR]RP[dK]RP[dK]TLNL[dF] [SEQ ID NO: 187] had an IC50 of 25.4 nM. Against the preceding molecule, the IC50 is about 2.3-fold lower.

[dR]KKR[dR]QR[dR]RPTDL[dR]L[dW] [SEQ ID NO: 181] yielded an IC50 of 47.6 nM. This IC50 is about 1.9-fold higher than that of the molecule before.

The molecule RKKRRQRRR [SEQ ID NO: 46] yielded an IC50 of 8130 nM.

Molecule RKKRRQRRRRPKRPATLNLF [SEQ ID NO: 172] gave an IC50 of 102 nM.

[dR]KKR[dR]QRR[dR]RP[dK]RPTDLNL[dF] [SEQ ID NO: 177] came in with a 50% inhibitory concentration (IC50) of 45.4 nM. Compared with the last molecule, the IC50 is about 2.2-fold lower.

In the case of [dR]KKR[dR]QRR[dR]RKAL[dR]L[dF] [SEQ ID NO: 190], the midpoint of inhibition, the IC50, lay at 159 nM.

Another experiment deals with T2, His-JNK1 (ref 14-327, Upstate) (UniProt P45983 1-384). The experiment in a line: kinase inhibition.
T2 sequence (P45983 other isoform, or with tags, fused parts or gaps): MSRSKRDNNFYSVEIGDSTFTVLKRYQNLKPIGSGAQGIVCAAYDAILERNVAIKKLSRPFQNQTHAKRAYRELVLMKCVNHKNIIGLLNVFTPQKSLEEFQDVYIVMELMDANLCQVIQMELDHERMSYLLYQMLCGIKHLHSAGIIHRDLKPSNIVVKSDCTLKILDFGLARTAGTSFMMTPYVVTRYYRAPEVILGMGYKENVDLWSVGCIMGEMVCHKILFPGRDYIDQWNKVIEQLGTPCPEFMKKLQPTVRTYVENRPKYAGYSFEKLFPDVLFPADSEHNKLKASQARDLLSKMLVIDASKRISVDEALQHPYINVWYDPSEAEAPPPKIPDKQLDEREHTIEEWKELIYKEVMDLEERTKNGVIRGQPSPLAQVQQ
For [dR]KKR[dR]QR[dR]KRP[dA]TLNL[dF] [SEQ ID NO: 184], the IC50 stood at 2430 nM. This counts as single-digit micromolar.

In turn, [dR]KKR[dR]QRR[dR]RP[dK]RPTTLNL[dW] [SEQ ID NO: 176] showed an IC50 of 131 nM.

GRKKRRQRRRPTTLNLFPQVPRSQD [SEQ ID NO: 195] yielded an IC50 of 10.8 nM. Compared with the last molecule, the IC50 is about 12-fold lower.

Take [dR]KKR[dR]QRR[dR]RPTTL[dR]L[dW] [SEQ ID NO: 178]: the IC50 came to 329 nM. This IC50 is about 30-fold higher than that of the molecule before.

Consider [dR]KKR[dR]QR[dR]RP[dA]TLNL[dF] [SEQ ID NO: 183], for which half-maximal inhibition (IC50) required 2590 nM.

For the molecule [dR]KKR[dR]QRR[dR]GKRKAL[dR]L[dF] [SEQ ID NO: 189], inhibition was half-maximal at 22300 nM (IC50).

Consider [dR]KKR[dR]QRR[dR]GKRKALKL[dF] [SEQ ID NO: 188], for which the IC50 amounted to 1420 nM. This IC50 lies about 16-fold lower than the previous one.

For [dR]KKR[dR]QRR[dR]RPTDL[dR]L[dW] [SEQ ID NO: 180], the IC50 is 265 nM.

Turning to [dR]KKR[dR]QR[dR]RPTTL[dR]L[dW] [SEQ ID NO: 179], the IC50 worked out at 249 nM.

Regarding [dR]KKR[dR]QRR[dR]RPTTLNL[dF] [SEQ ID NO: 174], the IC50 is 334 nM.

Molecule [dR]KKR[dR]QRR[dR]RP[dK]RPTTL[dR]L[dF] [SEQ ID NO: 173] gave an IC50 of 88.4 nM.

The molecule [dR]KKR[dR]QRR[dR]RP[dK]RP[dQ]TLNL[dF] [SEQ ID NO: 186] came in with an IC50 of 1020 nM.

On to [dR]KKR[dR]QR[dR]RPTTLNL[dF] [SEQ ID NO: 175], for which the IC50 was determined as 185 nM.

For GRKKRRQRRRPPKRPTTLNLFPQVPRSQD [SEQ ID NO: 194], it took 14 nM to reach half-maximal inhibition (IC50). This IC50 is about 13-fold lower than that of the molecule before.

Consider [dR]KKR[dR]QRR[dR]RP[dK]RP[dS]TLNL[dF] [SEQ ID NO: 185], for which the IC50 came out at 766 nM.

Turning to [dR]KKR[dR]QRR[dR]RP[dA]TLNL[dF] [SEQ ID NO: 182], the midpoint of inhibition, the IC50, lay at 1680 nM. This IC50 is about 2.2-fold higher than that of the molecule before.

[dR]KKR[dR]QRR[dR]RP[dK]RP[dK]TLNL[dF] [SEQ ID NO: 187] showed an IC50 of 594 nM.

In turn, [dR]KKR[dR]QR[dR]RPTDL[dR]L[dW] [SEQ ID NO: 181] displayed an IC50 of 294 nM.

For the molecule RKKRRQRRRRPKRPATLNLF [SEQ ID NO: 172], the IC50 stood at 722 nM.

On to [dR]KKR[dR]QRR[dR]RP[dK]RPTDLNL[dF] [SEQ ID NO: 177], for which the IC50 was found to be 355 nM.

The molecule [dR]KKR[dR]QRR[dR]RKAL[dR]L[dF] [SEQ ID NO: 190] showed an IC50 of 8970 nM.

The target of a further experiment is T1, His-JNK3 (ref 14-501, Upstate). In words: JNK inhibition assay.
In turn, RPKRPTTL[dR]LF [SEQ ID NO: 6] gave an IC50 of 120 nM.

The target in a further experiment is T2, His-JNK1 (ref 14-327, Upstate). The experiment in a line: JNK inhibition assay.
As to RPKRPTTL[dR]LF [SEQ ID NO: 6], the IC50 turned out to be 90.5 nM.
